Read-outs that look alike come from different tables or passages of the source.
T1: reovirus T1L σ3_(3)μ1_(3) heterohexamer (mammalian orthoreovirus type 1 Lang …, UniProt P07939 1-365; P11077 1-708)
T1 sequence (looked up) 1: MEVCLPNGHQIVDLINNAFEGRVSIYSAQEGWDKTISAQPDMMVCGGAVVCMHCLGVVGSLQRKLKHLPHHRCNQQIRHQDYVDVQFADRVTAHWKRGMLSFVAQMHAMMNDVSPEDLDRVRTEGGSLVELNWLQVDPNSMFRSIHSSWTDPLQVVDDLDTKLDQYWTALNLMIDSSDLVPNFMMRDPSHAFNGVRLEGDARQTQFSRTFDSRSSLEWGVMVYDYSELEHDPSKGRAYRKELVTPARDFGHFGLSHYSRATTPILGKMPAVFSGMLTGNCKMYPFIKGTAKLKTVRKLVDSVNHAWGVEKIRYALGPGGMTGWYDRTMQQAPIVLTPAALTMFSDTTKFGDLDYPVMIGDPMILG
T1 sequence (looked up) 2: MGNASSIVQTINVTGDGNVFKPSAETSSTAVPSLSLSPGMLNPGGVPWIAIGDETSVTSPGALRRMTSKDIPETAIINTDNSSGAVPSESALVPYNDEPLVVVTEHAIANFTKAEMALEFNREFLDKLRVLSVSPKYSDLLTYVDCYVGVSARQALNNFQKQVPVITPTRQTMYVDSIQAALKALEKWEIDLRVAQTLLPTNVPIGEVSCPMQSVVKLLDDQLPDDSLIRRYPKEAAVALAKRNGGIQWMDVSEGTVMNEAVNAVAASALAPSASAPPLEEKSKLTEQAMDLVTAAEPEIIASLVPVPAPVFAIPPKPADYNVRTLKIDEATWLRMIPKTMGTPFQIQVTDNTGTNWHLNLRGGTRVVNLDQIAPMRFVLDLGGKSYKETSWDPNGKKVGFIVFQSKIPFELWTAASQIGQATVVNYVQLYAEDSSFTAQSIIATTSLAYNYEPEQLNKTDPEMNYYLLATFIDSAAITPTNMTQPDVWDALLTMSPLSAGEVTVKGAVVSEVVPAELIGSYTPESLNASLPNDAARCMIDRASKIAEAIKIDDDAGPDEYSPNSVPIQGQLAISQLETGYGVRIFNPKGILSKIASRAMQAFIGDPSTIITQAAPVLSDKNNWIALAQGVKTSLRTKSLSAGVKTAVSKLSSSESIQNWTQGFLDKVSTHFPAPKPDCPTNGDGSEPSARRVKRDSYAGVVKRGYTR

B1: Fc-tagged mouse NgR1 (Fc fusion)
chain: CPGACVCYNEPKVTTSCPQQGLQAVPTGIPASSQRIFLHGNRISHVPAASFQSCRNLTILWLHSNALARIDAAAFTGLTLLEQLDLSDNAQLHVVDPTTFHGLGHLHTLHLDRCGLRELGPGLFRGLAALQYLYLQDNNLQALPDNTFRDLGNLTHLFLHGNRIPSVPEHAFRGLHSLDRLLLHQNHVARVHPHAFRDLGRLMTLYLFANNLSMLPAEVLMPLRSLQYLRLNDNPWVCDCRARPLWAWLQKFRGSSSEVPCNLPQRLADRDLKRLAASDLEGCAVASGPFRPIQTSQLTDEELLSLPKCCQPDAADKASVLEPGRPASAGNALKGRVPPGDTPPGNGSGPRHINDSPFGTLPSSAEPPLTALRPGGSEPPGLPTTGPRRRPGCSRKNRTRSHCRLGQAGSGASGTGDAEGS
B2: His-tagged mouse Nogo-66 receptor 1 (amino acids 1-447) (receptor, UniProt Q99PI8 27-447, looked up)
chain: B1 chain
B3: His-tagged human Nogo-66 receptor 1 (amino acids 1-310) (receptor, UniProt Q9BZR6 27-310, looked up)
chain: CPGACVCYNEPKVTTSCPQQGLQAVPVGIPAASQRIFLHGNRISHVPAASFRACRNLTILWLHSNVLARIDAAAFTGLALLEQLDLSDNAQLRSVDPATFHGLGRLHTLHLDRCGLQELGPGLFRGLAALQYLYLQDNALQALPDDTFRDLGNLTHLFLHGNRISSVPERAFRGLHSLDRLLLHQNRVAHVHPHAFRDLGRLMTLYLFANNLSALPTEALAPLRALQYLRLNDNPWVCDCRARPLWAWLQKFRGSSSEVPCSLPQRLAGRDLKRLAANDLQGCA

Experiments:
Test in all cases: AFM single-molecule force spectroscopy
[1] = biological target: reovirus type 1 Lang (T1L) virion (mammalian orthoreovirus type 1 Lang (T1L)) (UniProt P07939)
[2] = biological target: T1, reovirus T1L σ3_(3)μ1_(3) heterohexamer
[3] = biological target: T1, reovirus T1L σ3_(3)μ1_(3) heterohexamer; remark: listed apart in the source

Row | Binder | Kd [1] [nM] | koff [1] [s⁻¹] | kon [1] [M⁻¹ s⁻¹] | Kd [2] [nM] | koff [2] [s⁻¹] | kon [2] [M⁻¹ s⁻¹] | koff [3] [s⁻¹]
1 | B1 | 93.5 | 0.65 | 6.94e+06 |  |  |  | 
2 | B2 |  |  |  | 76.8 ± 51.8 | 0.23 ± 0.12 | 2.99e+06 ± 460000 | 
3 | B3 |  |  |  |  | 0.32 ± 0.21 | 2.17e+06 ± 200000 | 3.51 ± 2.02
